{"source": "patent US10456446B2", "about": "“Use of human small leucine zipper protein in osteogenesis procedure” (Korea University Research and Business Foundation, priority 2013, dated 2019)", "key": {"MEF cells": {"tested_on": "MEF cells", "assay": "Osteoblast differentiation in MEF cells, alizarin red staining", "format": "cell-based", "conditions": "differentiation medium for 8 days", "procedure": "Primary human mesenchymal stem cells (MSCs), C3H10T1/2, 293T and MEF cells were cultured in a DMEM to which thermally inactivated 10% FBS and penicillin (100 U/mL)/streptomycin (100 μg/mL) were added. All cell types were cultured in a humidified incubator containing CO2 5% under a temperature condition of 37° C. In order to induce osteoblast differentiation, the medium was exchanged with a DMEM in which 50 μg/mL of ascorbic acid, 10 mM of β-glycerophosphate and 10% FBS were contained for 8 days. The differentiation medium was changed once every two days.\nTherefore, in order to characterize a potential role of sLZIP in the transcriptional activity of Runx2 by inhibiting the transcriptional activity of PPARγ2, the transcriptional activity of Runx2 was examined. For this purpose, 293T cells were temporarily transfected with Runx2 (0.5 μg), β-galactosidase (0.1 μg), 6 copies of Runx2 response elements (0.2 μg) and sLZIP at different contents (0.1 μg to 0.5 μg) (FIG. 7A). PPARγ2 (0.5 μg), β-galactosidase, Runx2, 6 copies of Runx2 response elements and sLZIP (0.5 μg) were expressed in the 293T cells (FIG. 7B). 293T cells were temporarily transfected with HDAC3 (0.5 μg), Runx2, β-galactosidase, 6 copies of Runx2 response elements and sLZIP at different contents (0.25 and 0.5 μg) (FIG. 7C). A promoter activity was measured by luciferase analysis. […]"}, "PPARγ2 and PGC1α": {"target": "T1, PPARγ2 and PGC1α (Homo sapiens, UniProt P37231)", "T1 construct": "expressed in transfected cells; host or cells: 293T (PGC1α endogenous)", "T1 sequence (P37231 1-505)": "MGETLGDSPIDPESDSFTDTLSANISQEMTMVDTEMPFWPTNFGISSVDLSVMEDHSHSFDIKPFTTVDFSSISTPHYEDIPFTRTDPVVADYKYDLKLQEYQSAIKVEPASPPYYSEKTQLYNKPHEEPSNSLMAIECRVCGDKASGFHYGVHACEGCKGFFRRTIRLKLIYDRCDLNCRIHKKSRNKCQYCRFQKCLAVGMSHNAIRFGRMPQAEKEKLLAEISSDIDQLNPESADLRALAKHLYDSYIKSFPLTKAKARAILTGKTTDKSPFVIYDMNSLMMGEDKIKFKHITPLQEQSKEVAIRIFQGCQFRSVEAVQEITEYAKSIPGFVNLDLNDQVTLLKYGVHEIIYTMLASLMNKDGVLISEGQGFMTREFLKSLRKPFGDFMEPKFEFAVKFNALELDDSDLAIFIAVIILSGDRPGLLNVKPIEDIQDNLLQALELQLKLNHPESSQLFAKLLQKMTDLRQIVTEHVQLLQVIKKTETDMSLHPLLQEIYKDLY", "assay": "GST pull-down, coactivator PGC1α on PPARγ2", "format": "binding", "conditions": "10 nM RZD for 24 hours", "procedure": "Therefore, in order to understand a regulation mechanism of sLZIP in the PPARγ2 transcriptional activity by binding to the FABP4 promoter region, an effect of sLZIP on the interaction between PPARγ2 and HDAC3 was examined. For this purpose, 293T cells were transfected with GST-HDAC3, Myc-PPARγ2 and Flag-sLZIP, and were treated or not treated with 10 nM of RZD for 24 hours. Cell lysates were subjected to GST pull-down analysis using a glutathione 4B bead, and a protein complex was analyzed in SDS-PAGE, and then immunoblotted with anti-GST, anti-Myc and anti-Flag antibodies (FIG. 6A). GST-HDAC3, GST-PPARγ2, Myc-PPARγ2, Flag-sLZIP and Ha-UB were expressed in the 293T cells, and the cells were treated with 10 nM of RZD for 24 hours. Cell lysates were subjected to GST pull-down analysis (FIG. 6B). GST-PPARγ2 and Flag-sLZIP were expressed in the 293T cells and treated with 10 nM of RZD for 24 hours. Cell lysates were subjected to GST pull-down analysis, and a protein complex was analyzed in SDS-PAGE, and then immunoblotted with anti-PGC1α, anti-GST and anti-Flag antibodies (FIG. 6C)."}}}
{"molecule": "sLZIP: human small leucine-zipper protein, isoform of LZIP, 354 amino acids, no transmembrane domain, GenBank FJ263669, SEQ ID NO: 1 (protein, listed as Homo sapiens) MELELDAGDQDLLAFLLEESGDLGTAPDEAVRAPLDWALPLSEVPSDWEVDDLLCSLLSPPASLNILSSSNPCLVHHDHTYSLPRETVSMDLESESCRKEGTQMTPQHMEELAEQEIARLVLTDEEKSLLEKEGLILPETLPLTKTEEQILKRVRRKIRNKRSAQESRRKKKVYVGGLESRVLKYTAQNMELQNKVQLLEEQNLSLLDQLRKLQAMVIEISNKTSSSSMYSSDTRGSLPAEHGVLSRQLRALPSEDPYQLELPALQSEVPKDSTHQWLDGSDCVLQAPGNTSCLLHYMPQAPSAEPPLEWPFPDLFSEPLCRGPILPLQANLTRKGGWLPTGSPSVILQDRYSG", "values": [{"measurement": "osteoblast differentiation and bone nodule formation", "setting": "MEF cells", "result": "promoted osteoblast differentiation and bone nodule formation"}, {"measurement": "complementing of coactivator PGC-la for PPARγ2", "setting": "PPARγ2 and PGC1α", "result": "inhibited"}]}
